Results on three compounds are retold here after paper PMC5579238, “MAPK1 of Leishmania donovani interacts and phosphorylates HSP70 and HSP90 subunits of foldosome complex” (Scientific Reports, 2017).

In one assay the target is T1, LdMAPK1 (Leishmania donovani, UniProt E2CWC1).
T1 construct: GST fused rLdMAPK1 (pGEX-KG-LdMAPK1), expressed in E. coli
T1 sequence (E2CWC1 1-358): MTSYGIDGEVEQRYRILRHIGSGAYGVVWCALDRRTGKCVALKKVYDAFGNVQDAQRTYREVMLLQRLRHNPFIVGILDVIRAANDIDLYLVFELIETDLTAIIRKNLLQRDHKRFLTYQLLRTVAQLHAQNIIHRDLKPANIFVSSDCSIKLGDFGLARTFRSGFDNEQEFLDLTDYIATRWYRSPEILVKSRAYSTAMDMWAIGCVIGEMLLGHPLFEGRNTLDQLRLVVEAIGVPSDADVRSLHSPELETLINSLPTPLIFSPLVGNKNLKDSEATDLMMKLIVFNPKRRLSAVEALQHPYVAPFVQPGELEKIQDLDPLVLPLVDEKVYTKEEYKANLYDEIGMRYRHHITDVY
Nature of the assay: Kinase-Glo Plus ATP consumption assay with recombinant HSP90 or HSP70 as substrate; Dixon plot. Format: biochemical.

Assay [1] deals with Leishmania donovani MAPK1 (L. donovani (endogenous in promastigotes)).

Where a name gives a salt, the structure may show the parent alone.

Chain of HSP70 (P17804 whole entry): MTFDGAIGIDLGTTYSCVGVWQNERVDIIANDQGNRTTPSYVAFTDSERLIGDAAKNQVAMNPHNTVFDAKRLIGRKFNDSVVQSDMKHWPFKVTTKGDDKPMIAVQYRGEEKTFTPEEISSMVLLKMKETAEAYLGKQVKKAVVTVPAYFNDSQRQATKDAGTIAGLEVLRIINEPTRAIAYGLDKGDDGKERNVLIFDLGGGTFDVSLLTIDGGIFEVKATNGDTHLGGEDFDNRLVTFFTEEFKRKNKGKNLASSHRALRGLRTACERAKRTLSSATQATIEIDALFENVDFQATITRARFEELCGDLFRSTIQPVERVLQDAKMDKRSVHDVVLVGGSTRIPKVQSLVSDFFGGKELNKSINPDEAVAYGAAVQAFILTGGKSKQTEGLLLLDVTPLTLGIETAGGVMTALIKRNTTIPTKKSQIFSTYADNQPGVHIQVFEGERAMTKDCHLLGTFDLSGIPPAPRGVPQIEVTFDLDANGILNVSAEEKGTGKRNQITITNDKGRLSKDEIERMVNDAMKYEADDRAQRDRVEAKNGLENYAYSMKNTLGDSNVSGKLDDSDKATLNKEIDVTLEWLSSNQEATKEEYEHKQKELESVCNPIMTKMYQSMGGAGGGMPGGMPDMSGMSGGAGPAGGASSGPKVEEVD

As to `CCOc1ccc(C=C2SC(=O)N(CCN)C2=O)cc1` [AMTZD, 3-(2-aminoethyl)-5-([4-ethoxyphenyl]methylene)-2,4-thiazolidinedione HCl], the Ki (in general, the equilibrium dissociation constant of an inhibitor or competing ligand from its target) on LdMAPK1 was determined as 2.72 ± 0.14 µM.

As to “HSP70 (from UniProt P17804 1-653) (natural protein)”, the Km of the in vitro kinase assay (ATP consumption, Kinase-Glo) of recombinant GST-LdMAPK1 with recombinant His-tagged HSP70 as substrate in assay [1] stood at 0.0176 µM.

On to HSP90 (natural protein), for which the Km of the in vitro kinase assay (ATP consumption, Kinase-Glo) of recombinant GST-LdMAPK1 with recombinant His-tagged HSP90 as substrate in assay [1] came to 0.0167 µM.
